# Experimental data: US20230295310A1 (ABCELLERA BIOLOGICS, published 2023)
# Target: EGFR on HeLa cells (UniProt P00533 25-1210, limits assumed)
# Experiment: cell-based or functional assay
Binder,Max killing %,X… HeLa EC50
"GOMP001_bsAb_012 (bispecific antibody, human IgG1, kappa, L234A L235A) heavy 1: EVQLVESGGGLVQPGGSLRLSCAASGFTLSSYTMNWVRKAPGKGLEWVSYISSSSRTIYYSDEVKGRFSISRDNAKNSLYLQMNSLRDEDTALYYCAREDYYDSSGFDNWGQGTLVTVSSASTKGPSVFPLAPSSKSTSGGTAALGCLVADYFPEPVTVSWNSGALTSGVHTFPAVLQSSGLYSLSSVVTVPSSSLGTQTYICNVNHKPSNTKVDEKVEPKSCDKTHTCPPCPAPEAAGGPSVFLFPPKPKDTLMISRTPEVTCVVVDVSHEDPEVKFNWYVDGVEVHNAKTKPREEQYNSTYRVVSVLTVLHQDWLNGKEYKCKVSNKALPAPIEKTISKAKGQPREPQVYTLPPSREEMTDNQVSLTCLVKGFYPSDIAVEWESNGQPENNYKTTPPVLMSDGSFFLASKLTVDKSRWQQGNVFSCSVMHEALHNHYTQKSLSLSPG light 1: RIRMTQSPSSFSASTGDRVTITCRASQGISSYLAWYQDKPGKAPKLLIYTASTLQSGVPSRFSGSGSGTDFTLTIRSLQSEDFATYYCQQYYSYPRTFGQGTKVEIKRTVAAPSVFIFPPSDKQLKSGTARVVCLLNNFYPREAKVQWKVDNALQSGNSQESVTEQDSKDSTYSLSSTLTLSKADYEKHKVYACEVTHQGLSSPVTKSFNRGEC heavy 2: QVQLVQSGAEVKKPGASVKVSCKASGYTFTSHWMHWVRYAPGQGLEWIGEFNPSNGRTNYNEKFKSKATMTVDTSTNTAYMELSSLRSEDTAVYYCASRDYDYDGRYFDYWGRGTLVTVSSASTKGPSVFPLAPSSKSTSGGTAALGCLVKDYFPEPVTVSWNSGALTSGVHTFPAVLQSSGLYSLSSVVTVPSSSLGTQTYICNVNHKPSNTKVDKKVEPKSCDKTHTCPPCPAPEAAGGPSVFLFPPKPKDTLMISRTPEVTCVVVDVSHEDPEVKFNWYVDGVEVHNAKTKPREEQYNSTYRVVSVLTVLHQDWLNGKEYKCKVSNKALPAPIEKTISKAKGQPRRPRVYTLPPSREEMTKNQVSLVCLVKGFYPSDIAVEWESNGQPENNYKTTPPVLDSDGSFFLYSVLTVDKSRWQQGNVFSCSVMHEALHNHYTQKSLSLSPG light 2: DIQMTQSPSSLSASVGDRVTITCSASSSVTYMYWYQRKPGDAPKLLIYDTSNLASGVPSRFSGSGSGTDYTFTISSLQPEDIATYYCQQWSSHIFTFGQGTKVEIKRTVAAPSVFIFPPSDEQLKSGTASVVCLLNNFYPREAKVQWKVDNALQSGNSQESVTEQDSKDSTYSLSSTLTLSKADYEKHKVYACEVTHQGLSSPVTKSFNRGEC",93.3%,0.0395 nM
"GOMP001_bsAb_013 (bispecific antibody, human IgG1, kappa, L234A L235A) heavy 1: QVQLVQSGAEVKKPGASVKVSCKASGYTFTSHWMHWVRKAPGQGLEWIGEFNPSNGRTNYNEEFKSKATMTVDTSTNTAYMELSSLRSEDTAVYYCASRDYDYDGRYFDYWGQGTLVTVSSASTKGPSVFPLAPSSKSTSGGTAALGCLVADYFPEPVTVSWNSGALTSGVHTFPAVLQSSGLYSLSSVVTVPSSSLGTQTYICNVNHKPSNTKVDEKVEPKSCDKTHTCPPCPAPEAAGGPSVFLFPPKPKDTLMISRTPEVTCVVVDVSHEDPEVKFNWYVDGVEVHNAKTKPREEQYNSTYRVVSVLTVLHQDWLNGKEYKCKVSNKALPAPIEKTISKAKGQPREPQVYTLPPSREEMTDNQVSLTCLVKGFYPSDIAVEWESNGQPENNYKTTPPVLMSDGSFFLASKLTVDKSRWQQGNVFSCSVMHEALHNHYTQKSLSLSPG light 1: RIQMTQSPSSLSASVGDRVTITCSASSSVTYMYWYQDKPGKAPKLLIYDTSNLASGVPSRFSGSGSGTDYTFTISSLQPEDIATYYCQQWSSHIFTFGQGTKVEIKRTVAAPSVFIFPPSDKQLKSGTARVVCLLNNFYPREAKVQWKVDNALQSGNSQESVTEQDSKDSTYSLSSTLTLSKADYEKHKVYACEVTHQGLSSPVTKSFNRGEC heavy 2: QVQLVQSGAEVKKPGASVKVSCKASGYTFTSYDINWVRYATGQGLEWMGWMNPKSGKTGYAQKFQGRITMTRNTPISTVYMDLSSLRSEDTAVYYCAREGHYDFWTGYYSFDYWGRGTLVTVSSASTKGPSVFPLAPSSKSTSGGTAALGCLVKDYFPEPVTVSWNSGALTSGVHTFPAVLQSSGLYSLSSVVTVPSSSLGTQTYICNVNHKPSNTKVDKKVEPKSCDKTHTCPPCPAPEAAGGPSVFLFPPKPKDTLMISRTPEVTCVVVDVSHEDPEVKFNWYVDGVEVHNAKTKPREEQYNSTYRVVSVLTVLHQDWLNGKEYKCKVSNKALPAPIEKTISKAKGQPRRPRVYTLPPSREEMTKNQVSLVCLVKGFYPSDIAVEWESNGQPENNYKTTPPVLDSDGSFFLYSVLTVDKSRWQQGNVFSCSVMHEALHNHYTQKSLSLSPG light 2: DIQMTQSPSSLSASVGDRVTITCRASQGIRNDLGWYQRTPGDAPKRLIYAASSLQSGVPSRFSGSGSGTEFTLTISSLQPEDFATYYCLQHYSYPYTFGQGTKLEIKRTVAAPSVFIFPPSDEQLKSGTASVVCLLNNFYPREAKVQWKVDNALQSGNSQESVTEQDSKDSTYSLSSTLTLSKADYEKHKVYACEVTHQGLSSPVTKSFNRGEC",80.8%,0.668 nM
"GOMP001_bsAb_014 (bispecific antibody, human IgG1, kappa, L234A L235A) heavy 1: QVQLVQSGAEVKKPGASVKVSCKASGYTFTSYDINWVRKATGQGLEWMGWMNPKSGKTGYAQEFQGRITMTRNTPISTVYMDLSSLRSEDTAVYYCAREGHYDFWTGYYSFDYWGQGTLVTVSSASTKGPSVFPLAPSSKSTSGGTAALGCLVADYFPEPVTVSWNSGALTSGVHTFPAVLQSSGLYSLSSVVTVPSSSLGTQTYICNVNHKPSNTKVDEKVEPKSCDKTHTCPPCPAPEAAGGPSVFLFPPKPKDTLMISRTPEVTCVVVDVSHEDPEVKFNWYVDGVEVHNAKTKPREEQYNSTYRVVSVLTVLHQDWLNGKEYKCKVSNKALPAPIEKTISKAKGQPREPQVYTLPPSREEMTDNQVSLTCLVKGFYPSDIAVEWESNGQPENNYKTTPPVLMSDGSFFLASKLTVDKSRWQQGNVFSCSVMHEALHNHYTQKSLSLSPG light 1: RIQMTQSPSSLSASVGDRVTITCRASQGIRNDLGWYQDTPGKAPKRLIYAASSLQSGVPSRFSGSGSGTEFTLTISSLQPEDFATYYCLQHYSYPYTFGQGTKLEIKRTVAAPSVFIFPPSDKQLKSGTARVVCLLNNFYPREAKVQWKVDNALQSGNSQESVTEQDSKDSTYSLSSTLTLSKADYEKHKVYACEVTHQGLSSPVTKSFNRGEC heavy 2: QVQLVQSGAEVKKPGASVKVSCKASGYTFTSHWMHWVRYAPGQGLEWIGEFNPSNGRTNYNEKFKSKATMTVDTSTNTAYMELSSLRSEDTAVYYCASRDYDYDGRYFDYWGRGTLVTVSSASTKGPSVFPLAPSSKSTSGGTAALGCLVKDYFPEPVTVSWNSGALTSGVHTFPAVLQSSGLYSLSSVVTVPSSSLGTQTYICNVNHKPSNTKVDKKVEPKSCDKTHTCPPCPAPEAAGGPSVFLFPPKPKDTLMISRTPEVTCVVVDVSHEDPEVKFNWYVDGVEVHNAKTKPREEQYNSTYRVVSVLTVLHQDWLNGKEYKCKVSNKALPAPIEKTISKAKGQPRRPRVYTLPPSREEMTKNQVSLVCLVKGFYPSDIAVEWESNGQPENNYKTTPPVLDSDGSFFLYSVLTVDKSRWQQGNVFSCSVMHEALHNHYTQKSLSLSPG light 2: DIQMTQSPSSLSASVGDRVTITCSASSSVTYMYWYQRKPGDAPKLLIYDTSNLASGVPSRFSGSGSGTDYTFTISSLQPEDIATYYCQQWSSHIFTFGQGTKVEIKRTVAAPSVFIFPPSDEQLKSGTASVVCLLNNFYPREAKVQWKVDNALQSGNSQESVTEQDSKDSTYSLSSTLTLSKADYEKHKVYACEVTHQGLSSPVTKSFNRGEC",95%,0.131 nM
